From US20260231954A1, “PESTICIDAL ENZYMES FOR USE ON NEMATODES, INSECTS, AND MOLLUSKS” (priority 2023, published 2026)

How the values were obtained:
[1] = tested on: Fall armyworm (Spodoptera frugiperda); assay: Diet-surface overlay (DSO) bioassay on Fall armyworm; assay type: in vivo
Procedure: (§1) Diet-surface overlay bioassays are conducted with artificial diet mixes without antibiotics in 1.5 cm^2 cell bioassay trays(s). Artificial diets are commercially available from Southland Products Inc. Diets were prepared by dispersing 0.5 mL of molten diet to each 1.5 cm^2 cell. After solidification, 0.1 mL enzyme treatments were dispersed on top of diet in each cell and the tray was gently rocked in an orbital shaker to spread the liquid uniformly over the diet surface. Trays were placed under clean airflow until the surface of each cell was uniformly dried. One or two 16-cell sections were used per treatment (the number in larvae treated was 16 or 32).
(§2) One healthy first instar larva was placed into each treatment cell, each 16-cell section was covered with a re-sealable lid and incubated at 27° C. and light-dark period of 16:8 hrs. After 7 days, and according to the species, the number of individuals in the following developmental categories was recorded.
(§3) Negative/untreated controls were treated with filtered water and positive controls were treated with lethal doses of Bacillus thuringiensis subsp. Kurstaki (Btk) spores at 1000 ppm.

[2] = tested on: soybean cyst nematode (SCN, Heterodera glycines); assay: Soybean cyst nematode reproduction on soybean after seed treatment, controlled environment (cysts per gram of root tissue or per plant); assay type: in vivo; details: for % Comparison to Control (figure in parentheses): change vs base control
[3] = tested on: Btk resistant Diamondback moth; assay: Diet-surface overlay (DSO) bioassay on Btk resistant Diamondback moth; assay type: in vivo, Plutella xylostella; details: number of individuals, n = 32, 7 days
Procedure: as §1, §2
Diamondback moth (Plutella xylostella): Dead Larva (lack of movement), Larva Stage I (≤50% relative size), Larva Stage II (100% relative size, full size), Early Pupa (light green color), Late Pupa (light-dark brown color), and Adult.
as §3
However, both neutral proteases reduced the number of individuals reaching adult stage.
The effect of lipase (10× enzyme rate) and free lipases were tested on a Diamondback Moth Btk resistant strain. Free Lipases from Burkholderia cepacia (Bc) and Pseudomonas fluorescens (Pf) were tested along with Lipase (SEQ ID NO: 76) and the results are shown below in Table 45.

[4] = Table 46, number of individuals, n = 32, 7 days
[5] = Table 48, chitinases, Fall armyworm, number of individuals of n = 32, DSO bioassay
[6] = Table 50, esterases, Fall armyworm, number of individuals of n = 32
[7] = Table 50, esterases, Fall armyworm, number of individuals of n = 32, DSO bioassay, dose per treatment in U/mL Diet

B1: Lipase: lipase of Table 46, not further identified; probably Lipase (SEQ ID NO: 76) (protein, listed as Bacillus thuringiensis)
chain: MRLMRRCVALLIVFFIMAPMISTNVRAGVVKELKTGFPDQEVFTPGEWFLGQKPANYDENKPPILFVQGRNGNADSWYGKTVYHDINDMYDYALKAGYQTVFIQLYDAAGKGSASQWDNGKLLAQKLEEIYNHFGKKVNIVAHSKGGIDTQAALVGYGANRFVGNVITLATPHHGSNLADLSYSWWAGWLASILGQKDDGTYSLQMGEMAKFRSTIDNNPAAKLNRYYTVTGTSWGPVFSALSMGGLYLSSYGSNDGLVNECSAKLPYGTHLFTDSRFDHDNIRKGSAVFARIEPYLRTANVPVPALVASSTSSNENIEQLNTTSNQSILGGELPQNQWIEQTVAVDKKAEGIVSILTASSDVEVQMISPKGKVYTNKDSVITTGEGESFFGGATIRTFKFDKMDVGEWKVKMMTKQSKDAYLVVSDYKTGAPFVLQMPTKVKANKSEYKLKKSPVAPEMKGDLSITVRVVNKEGKLVSEFNELQNVNNNTFTGALKNIKQPGVYNVTMDIKGMNKEGKSYSRTIVKSVYVEK
modifications: Lipase (Lip1 H192)
- Dead Larva ([1]; Table 46, lipases, number of individuals, n = 32, 7 days): 5
- Larva Stage I [1, 4]: 2
- Larva Stage II [1, 4]: 10
- Larva Stage III [1, 4]: 15
- Larva Stage IV [1, 4]: 0

B2: Pseudomonas sp. esterase free enzyme concentrate (SEQ ID NO: 248): free enzyme concentrated in an Amicon Ultra 4K filter unit, 4× volumetric concentration (protein, listed as Pseudomonas sp.)
chain: MTEPLILQPVKPADACVIWLHGLGADRYDFLPVAEALQEILLSTRFVLPQAPTRPVTINGGYAMPSWYDIKAMSPARAIDRDELEASADRIIELIEEQRSSGIDASRIFLAGFSQGGAVVYHTAFLKWQGPLGGVLALSTYAPTFSDELELSASQQRIPVLSLHGQFDNVVQNSMGRTAYEYLKAHGVTVTWQEYPMEHEVLPEEIRDIGTWLSERLR
modifications: concentrated
notes: free enzyme concentrated in an Amicon Ultra 4K filter unit, 4× volumetric concentration
- % Comparison to Control (figure in parentheses) ([2]; Table 16): −25%
- Average cysts per g of root tissue ([2]; Table 16, free enzyme or 4x concentrate seed treatment, soybean 2830E3): 182.1 cysts per g of root tissue

B3: Trypsin-like protease (SEQ ID NO: 126): Trichoderma lixii trypsin-like protease (protein, listed as Trichoderma lixii)
chain: AAITPRGSDIVGGTTAALGEFPYIVSLSTGGSHFCGGVLIDSRTVVTAGHCTIDQRASSVKVRAGTLTWASGGTQVGVSSLTLHPSYTVDSQGVPDNDVGVWHLATAIPTSSTIGYATLPASGSDPAAGTTLTVAGWGTTSENSNSLPSTLRKVSVPVVARATCDSDYDGEISNNMFCAAVAAGGKDSCSGDSGGPIIDPSGTLVGVVSWGQGCAERGFPGVYTRLGNYVSFINSNRG
modifications: H182 trypsin-like protease
- Average cysts per g of root tissue ([2]; Table 11, free enzyme seed treatment 2 fl. oz. per unit of seed (ILEVO 0.15 mg active ingredient per seed), soybean P18A98X, 3 weeks after inoculation): 18.6 cysts per g of root tissue

B4: Chitinase (SEQ ID NO: 185): recombinant chitinase from Akanthomyces lecanii; Acidic Chitinase 1 (Chit1) (protein, listed as Akanthomyces lecanii)
chain: MAKCTSPDRKCPAPLIDAPINSFMTDGWADTDIHWEGDSWNDSGTNIYGCLKQLNILKKHNRNFKVLLSIGGWTYSSNFPAPASTPEGRDTFAKSCVELVKNLGFDGIDIDWEYPKTAEEAGHFVELLAEVRKQLDEYSARAANNYHFELSVACPAGPDNFQKLNISGMDAYLDFWNLMAYDYAGSWDKNSGHQANLYPCKDAPGCTPFSTVAAVDYYTSNGVSPDKLVLGMPLYGRAFENCDGIGQPFQGVGQGTWEQGVYDYKKLPLEGAEEHKDDDSCATYCHNAESRTLVTYDTPELAKTKADFIKERGLGGGMWWESSADKAGDDSLIQVVVSELGGPEALKQQQNCISYPETKYDNLRDGLPDN
modifications: Acidic Chitinase 1 (Chit1-H195)
- Larva Stage I [1, 5]: 4
- Larva Stage II [1, 5]: 5
- Larva Stage III [1, 5]: 8
- Larva Stage IV [1, 5]: 8
- Dead Larva ([1]; Table 48, chitinases, Fall armyworm, number of individuals of n = 32, DSO bioassay, dose per treatment in mU/mL Diet): 7
- Dead Larva ([3]; Table 47, chitinases, rate in mU/mL diet column): 2
- Adult ([3]; Table 47): 1
- Early Pupa ([3]; Table 47): 8
- Larva Stage I ([3]; Table 47): 2
- Larva Stage II ([3]; Table 47): 2
- Late Pupa ([3]; Table 47): 17

B5: H6-pnbA (SEQ ID NO: 94): recombinant six-histidine tagged esterase pnbA from Bacillus subtilis (protein, listed as Bacillus subtilis)
chain: MTHQIVTTQYGKVKGTTENGVHKWKGIPYAKPPVGQWRFKAPEPPEVWEDVLDATAYGSICPQPSDLLSLSYTELPRQSEDCLYVNVFAPDTPSKNLPVMVWIHGGAFYLGAGSEPLYDGSKLAAQGEVIVVTLNYRLGPFGFLHLSSFNEAYSDNLGLLDQAAALKWVRENISAFGGDPDNVTVFGESAGGMSIAALLAMPAAKGLFQKAIMESGASRTMTKEQAASTSAAFLQVLGINEGQLDKLHTVSAEDLLKAADQLRIAEKENIFQLFFQPALDPKTLPEEPEKAIAEGAASGIPLLIGTTRDEGYLFFTPDSDVHSQETLDAALEYLLGKPLAEKVADLYPRSLESQIHMMTDLLFWRPAVAYASAQSHYAPVWMYRFDWHPKKPPYNKAFHALELPFVFGNLDGLERMAKAEITDEVKQLSHTIQSAWITFAKTGNPSTEAVNWPAYHEETRETLILDSEITIENDPESEKRQKLFPSKGE
modifications: Esterase (pnbA)
- Larva Stage I [1, 6]: 0
- Larva Stage II [1, 6]: 0
- Larva Stage III [1, 6]: 15
- Larva Stage IV [1, 6]: 17
- Dead Larva [1, 7]: 0

B6: Bacillus thuringiensis Lipase 1 (SEQ ID NO: 250): Bacillus thuringiensis Lipase 1 (protein, listed as Bacillus thuringiensis)
chain: YGFVSGVNDVLNPKASNLIKKTDVVAKEKKKTGTLQIVSLGDSLTRGVGDKEGIGYVGRMKEDLQKDYKQKIALTNLAVSGAKMPDLLKQIESNGAQYSIKQADVIVLTIGGNDLFPGWESLGKIDLETYRPDTETFQNEAKKIIEEIRKLNTDSPIFWLGLYNPFEDVEDLKGSSNIVVDWNASLEKLALNDKNVYITPTFDLFQNRGKDLLYSDHFHPNEVGYTYMAERLVQNVVSKLKLEQGGVK
- % Comparison to Control (figure in parentheses) ([2]; Table 19): −25%
- Average cysts per g of root tissue ([2]; Table 19, free enzyme seed treatment, soybean 2830E3): 332.0 cysts per g of root tissue

B7: Chitinase C (SEQ ID NO: 249): Chitinase C (protein, listed as Bacillus thuringiensis)
chain: DSPKQSQKIVGYFPSWGVYGRNYQVADIDASKLTHLNYAFADICWKGKHGNPSTHPDNPNKQTWNCKESGVPLQNKEVPNGTLVLGEPWADVTKSYPGSGTTWEDCDKYARCGNFGELKRLKAKYPHLKTIISVGGWTWSNRFSDMAADEKTRKVFAESTVAFLRAYGFDGVDLDWEYPGVETIPGGSYRPEDKQNFTLLLQDVRNALNKAGAEDGKQYLLTIASGASQRYADHTELKKISQILDWINIMTYDFHGGWEATSNHNAALYKDPNDPAANTNFYVDGAIDVYTNEGVPVDKLVLGVPFYGRGWKSCGKENNGQYQPCKPGSDGKLASKGTWDDYSTGDTGVYDYGDLTANYVNKNGFVRYWNDTAKVPYLYNATTGTFISYDDNESMKYKTDYIKTKGLSGAMFWELSGDCRTSPKYSCSGPKLLDTLVKELLGGPINQKDTEPPTNVKNIIVTNKTSSSVQLSWTASTDNVGVTEYEITAGEEKWSATTNSITIKNLKPNTEYTFSVIAKDASGNKSHPTALTVKTDEANTTPPDGNGTATFSVTSNWGSGYNFSIIIKNNGTIPIKNWKLEFDYSGNLTQVWDSKISSKTNNHYVITNAGWNGEIPPGGSITIGGAGTGNPAELLNAVISEN
- % Comparison to Control (figure in parentheses) ([2]; Table 18): −22%
- Average cysts per g of root tissue ([2]; Table 18, free enzyme seed treatment): 45.7 cysts per g of root tissue

B8: H6-pytH (SEQ ID NO: 95): recombinant six-histidine tagged esterase pytH from Sphingobium wenxiniae (protein, listed as Sphingobium wenxiniae)
chain: MTVTDIILIHGALNRGACYDAVVPLLEARGYRVHAPDLTGHTPGDGGHLSVVDMEHYTRPVADILARAEGQSILLGHSLGGASISWLAQHHPDKVAGLIYLTAVLTAPGITPETFVLPGEPNRGTPHALDLIQPVDEGRGLQADFSRLERLREVFMGDYPGEGMPPAEQFIQTQSTVPFGTPNPMEGRALEIPRLYIEALDDVVIPIAVQRQMQKEFPGPVAVVSLPASHAPYYSMPERLAEAIADFADAPAEYRQTATKAGPDRPAGADGGRADRADLP
modifications: Esterase (pytH)
- Larva Stage I [1, 6]: 0
- Larva Stage II [1, 6]: 0
- Larva Stage III [1, 6]: 13
- Larva Stage IV [1, 6]: 19
- Dead Larva [1, 7]: 0
